Results as given in patent US20140302043A1.

How the values were obtained:
Experiment in all cases: cell-based or functional assay
[1] = molecular target: hemagglutinin (HA) of H1N1 virus strain A/Auckland/65/2001 (influenza A virus H1N1, A/Auckland/65/2001)
[2] = molecular target: hemagglutinin (HA) of H1N1 virus strain A/Bangkok/163/2000 (influenza A virus H1N1, A/Bangkok/163/2000)
[3] = molecular target: hemagglutinin (HA) of H1N1 virus strain A/Beijing/262/1995 (influenza A virus H1N1, A/Beijing/262/1995)
[4] = molecular target: hemagglutinin (HA) of H1N1 virus strain A/Brisbane/59/2007 (influenza A virus H1N1, A/Brisbane/59/2007)
[5] = molecular target: hemagglutinin (HA) of H1N1 virus strain A/Canada/59/2004 (influenza A virus H1N1, A/Canada/59/2004)
[6] = molecular target: hemagglutinin (HA) of H1N1 virus strain A/Chile/8885/2001 (influenza A virus H1N1, A/Chile/8885/2001)
[7] = molecular target: hemagglutinin (HA) of H1N1 virus strain A/Florida/2/1993 (influenza A virus H1N1, A/Florida/2/1993)
[8] = molecular target: hemagglutinin (HA) of H1N1 virus strain A/Fujian/156/2000 (influenza A virus H1N1, A/Fujian/156/2000)
[9] = molecular target: hemagglutinin (HA) of H1N1 virus strain A/Johannesburg/159/1997 (influenza A virus H1N1, A/Johannesburg/159/1997)
[10] = molecular target: hemagglutinin (HA) of H1N1 virus strain A/Kawasaki/6/1986 (influenza A virus H1N1, A/Kawasaki/6/1986)
[11] = molecular target: hemagglutinin (HA) of H1N1 virus strain A/Moscow/13/1998 (influenza A virus H1N1, A/Moscow/13/1998)
[12] = molecular target: hemagglutinin (HA) of H1N1 virus strain A/Neimenggu/52/2002 (influenza A virus H1N1, A/Neimenggu/52/2002)
[13] = molecular target: hemagglutinin (HA) of H1N1 virus strain A/New Caledonia/22/1999 (influenza A virus H1N1, A/New Caledonia/22/1999)
[14] = molecular target: hemagglutinin (HA) of H1N1 virus strain A/Ostrava/801/1998 (influenza A virus H1N1, A/Ostrava/801/1998)
[15] = molecular target: hemagglutinin (HA) of H1N1 virus strain A/Shanghai/2/1997 (influenza A virus H1N1, A/Shanghai/2/1997)
[16] = molecular target: hemagglutinin (HA) of H1N1 virus strain A/Shengzhen/227/1995 (influenza A virus H1N1, A/Shengzhen/227/1995)
[17] = molecular target: hemagglutinin (HA) of H1N1 virus strain A/Solomon islands/03/2006, on virus (influenza A virus H1N1, A/Solomon Islands/03/2006)
[18] = molecular target: hemagglutinin (HA) of H1N1 virus strain A/USSR/90/1977 (influenza A virus H1N1, A/USSR/90/1977)

Row | Substance | mAb minimum effective concentration (EC99, microneutralization on MDCK cells) [1] | mAb minimum effective concentration (EC99, microneutralization on MDCK cells) [2] | mAb minimum effective concentration (EC99, microneutralization on MDCK cells) [3] | mAb minimum effective concentration (EC99, microneutralization on MDCK cells) [4] | mAb minimum effective concentration (EC99, microneutralization on MDCK cells) [5] | mAb minimum effective concentration (EC99, microneutralization on MDCK cells) [6] | mAb minimum effective concentration (EC99, microneutralization on MDCK cells) [7] | mAb minimum effective concentration (EC99, microneutralization on MDCK cells) [8] | mAb minimum effective concentration (EC99, microneutralization on MDCK cells) [9] | mAb minimum effective concentration (EC99, microneutralization on MDCK cells) [10] | mAb minimum effective concentration (EC99, microneutralization on MDCK cells) [11] | mAb minimum effective concentration (EC99, microneutralization on MDCK cells) [12] | mAb minimum effective concentration (EC99, microneutralization on MDCK cells) [13] | mAb minimum effective concentration (EC99, microneutralization on MDCK cells) [14] | mAb minimum effective concentration (EC99, microneutralization on MDCK cells) [15] | mAb minimum effective concentration (EC99, microneutralization on MDCK cells) [16] | mAb minimum effective concentration (EC99, microneutralization on MDCK cells) [17] | mAb minimum effective concentration (EC99, microneutralization on MDCK cells) [18]
1 | mAb CH65, recombinant intact IgG1 (antibody) | 0.195 µg/mL | 0.195 µg/mL | 0.098 µg/mL | 0.098 µg/mL | 0.098 µg/mL | 0.195 µg/mL | 0.012 µg/mL | 0.488 µg/mL | 0.098 µg/mL | 0.098 µg/mL | 0.012 µg/mL | 0.098 µg/mL | 0.391 µg/mL | 12.5 µg/mL | 0.195 µg/mL | 0.012 µg/mL | 0.024 µg/mL | 100 µg/mL
2 | mAb CH67 (antibody) | 0.098 µg/mL | 0.098 µg/mL | 0.098 µg/mL | 0.98 µg/mL | 0.098 µg/mL | 0.098 µg/mL | 0.012 µg/mL | 0.049 µg/mL | 0.39 µg/mL | 0.39 µg/mL | 0.012 µg/mL | 0.098 µg/mL | 0.195 µg/mL | – | 0.195 µg/mL | 0.024 µg/mL | 0.098 µg/mL | 25 µg/mL
